B1: Azoarcus group I ribozyme (parent)
chain: GUGCCUUGCGCCGGGAAACCACGCAAGGGAUGGUGUCAAAUUCGGCGAAACCUAAGCGCCCGCCCGGGCGUAUGGCAACGCCGAGCCAAGCUUCGGCGCCUGCGCCGAUGAAGGUGUAGAGACUAGACGGCACCCACCUAAGGCAAACGCUAUGGUGAAGGCAUAGUCCAGGGAGUGGCGAAAGUCACACAAACCGG

Variants of: B1
Experiment: reverse-splicing fitness (ratio to wild type); higher = more active; in vitro selection; Mg2+ level not given
Procedure, shortened: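 An in vitro group I ribozyme library with randomized positions was T7-transcribed and gel-purified. In triplicate, 10 pmol RNA in EPPS pH 7.5 was reacted with 50 pmoles of a 30-nt RNA substrate for 1 h at 37 °C across several added MgCl2 levels (1–48 mM), then stopped with EDTA. Products were reverse transcribed from a substrate-complementary primer, PCR-amplified and sequenced (HiSeq 4000). Fitness is a variant's read proportion after selection over that before, normalised to wild type.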

Going from C82G A111U A120U C150G U176C to C82G A111U A120U C150G U176A, the reverse-splicing fitness falls from 0.00683 to 0.00389.

Going from C82G A111U A120U C150G U176G to C82G A111U A145U C150G C169G, the reverse-splicing fitness rises from 0.0026 to 0.00766.

First: C82G A111U A145U C150G C169A
Second: C82G A111U A145U C150G C169U
The reverse-splicing fitness of the first is lower: 0.00951 for the first, 0.00956 for the second.

Compared with C82G A111U A120U A145U C150U C169G U176G, C82G A111U A120U A145U C150U C169G U176A is higher in reverse-splicing fitness: 0.00218 for the first, 0.00344 for the second.

Compared with C82G A111U A120U A145U C150U C169G U176C, C82G A111U A145G C150A C169G U176C is higher in reverse-splicing fitness: 0.00287 for the first, 0.0282 for the second.

Compared with C82G A111U A145G C150A C169G U176A, C82G A111U A145G C150A C169G U176G is lower in reverse-splicing fitness: 0.0179 for the first, 0.00671 for the second.

Compared with C82G A111U C150A C169A, C82G A111U C150A C169G is lower in reverse-splicing fitness: 0.0114 for the first, 0.00899 for the second.

First: C82G A111U A145C C150A C169U
Second: C82G A111U A145C C150A C169A
The reverse-splicing fitness of the first is higher: 0.0105 for the first, 0.00868 for the second.

Compared with C82G A111U A145C C150A C169G, C82G A111U A145C C169G is higher in reverse-splicing fitness: 0.00822 for the first, 0.00826 for the second.

Compared with C82G A111U A145C C169A, C82G A111U A145C C169U is higher in reverse-splicing fitness: 0.00732 for the first, 0.0121 for the second.

Going from C82G A111U A145G C150G C169G to C82G A111U A145G C150G C169U, the reverse-splicing fitness rises from 0.00715 to 0.00972.

Compared with C82G A111U A145G C150G C169A, C82G A111U A145G C150U U176A is higher in reverse-splicing fitness: 0.00977 for the first, 0.144 for the second.

Compared with C82G A111U A145G C150U U176G, C82G A111U A145G C150U U176C is higher in reverse-splicing fitness: 0.0447 for the first, 0.196 for the second.

Going from C82G A111U A145U C150U C169G to C82G A111U A145U C150U C169A, the reverse-splicing fitness rises from 0.00884 to 0.00988.

First: C82G A111U A145U C150U C169U
Second: C82G A111U A120U A145U C150U U176G
The reverse-splicing fitness of the first is higher: 0.0113 for the first, 0.00302 for the second.

Compared with C82G A111U A120U A145U C150U U176A, C82G A111U A120U A145U C150U U176C is higher in reverse-splicing fitness: 0.00894 for the first, 0.0131 for the second.

Going from C82G A111U A145C C150U C169U U176A to C82G A111U A145C C150U C169U U176G, the reverse-splicing fitness falls from 0.0136 to 0.00613.

Going from C82G A111U A145C C150U C169U U176C to C82G A111U A145G C169A U176G, the reverse-splicing fitness falls from 0.0098 to 0.00602.

First: C82G A111U A145G C169A U176A
Second: C82G A111U A145G C169A U176C
The reverse-splicing fitness of the first is lower: 0.0174 for the first, 0.0263 for the second.

Going from C82G A111U C150A C169A U176A to C82G A111U C150A C169A U176G, the reverse-splicing fitness falls from 0.0193 to 0.00814.

First: C82G A111U C150A C169A U176C
Second: C82G A111U A145C U176G
The reverse-splicing fitness of the first is lower: 0.0206 for the first, 0.0756 for the second.

Going from C82G A111U A145C U176C to C82G A111U A145C U176A, the reverse-splicing fitness falls from 0.224 to 0.19.

First: C82G A111U A145C C150U C169A U176A
Second: C82G A111U A145C C150U C169A U176C
The reverse-splicing fitness of the first is higher: 0.0133 for the first, 0.00701 for the second.

Compared with C82G A111U A145C C150U C169A U176G, C82G A111U A145C C150U is higher in reverse-splicing fitness: 0.00702 for the first, 0.0722 for the second.

First: C82G A111U A145C C150G
Second: C82G A111U A145C C150A
The reverse-splicing fitness of the first is higher: 0.0354 for the first, 0.0198 for the second.

Compared with C82G A111U A120U C150U C169U U176C, C82G A111U A120U C150U C169U U176A is higher in reverse-splicing fitness: 0.00402 for the first, 0.0052 for the second.

Compared with C82G A111U A120U C150U C169U U176G, C82G A111U A145U C169G is higher in reverse-splicing fitness: 0.00215 for the first, 0.00896 for the second.

First: C82G A111U A145U C169U
Second: C82G A111U A145U C169A
The reverse-splicing fitness of the first is higher: 0.0113 for the first, 0.00754 for the second.

Going from C82G A111U A145G C169G to C82G A111U A145G C169U, the reverse-splicing fitness rises from 0.00953 to 0.0131.

Going from C82G A111U A145G C169A to C82G A111U A145G C150A C169A U176A, the reverse-splicing fitness rises from 0.0087 to 0.0183.

Compared with C82G A111U A145G C150A C169A U176G, C82G A111U A145G C150A C169A U176C is higher in reverse-splicing fitness: 0.00721 for the first, 0.0216 for the second.

Going from C82G A111U A145U C150A C169A U176G to C82G A111U A145U C150A C169A U176C, the reverse-splicing fitness rises from 0.00732 to 0.0126.

Going from C82G A111U A145U C150A C169A U176A to C82G A111U A120U C150U C169G U176C, the reverse-splicing fitness falls from 0.0149 to 0.00433.

Compared with C82G A111U A120U C150U C169G U176G, C82G A111U A120U C150U C169G U176A is higher in reverse-splicing fitness: 0.00236 for the first, 0.00881 for the second.

Going from C82G A111U A120U C150U C169U to C82G A111U A120U C150U C169G, the reverse-splicing fitness rises from 0.00485 to 0.00565.

Compared with C82G A111U A120U C150U C169A, C82G A111U A145G C150U C169G U176G is higher in reverse-splicing fitness: 0.0056 for the first, 0.0058 for the second.

Compared with C82G A111U A145G C150U C169G U176C, C82G A111U A145G C150U C169G U176A is lower in reverse-splicing fitness: 0.0191 for the first, 0.0141 for the second.

Compared with C82G A111U A145C C150G C169A U176G, C82G A111U A145C C150G C169A U176C is higher in reverse-splicing fitness: 0.00713 for the first, 0.00812 for the second.

First: C82G A111U A145C C150G C169A U176A
Second: C82G A111U A145C C150G U176A
The reverse-splicing fitness of the first is lower: 0.00976 for the first, 0.0157 for the second.

Going from C82G A111U A145C C150G U176C to C82G A111U A145C C150G U176G, the reverse-splicing fitness falls from 0.0238 to 0.00504.

Going from C82G A111U A145C C150G C169G to C82G A111U A145C C150G C169U, the reverse-splicing fitness rises from 0.00784 to 0.00915.

For C82G A111U A145C C150G C169A, the reverse-splicing fitness was 0.00892.

Source: the RNAGym collection of RNA variant scans (doi:10.1093/molbev/msab373)
